Test results published in US20240366775A1 (PEPTIDREAM, published 2024).

B1: ipilimumab (Selleck Biotech Co., Ltd., Cat. No. A2001) (antibody, V domains shown)
VH: QVQLVESGGGVVQPGRSLRLSCAASGFTFSSYTMHWVRQAPGKGLEWVTFISYDGNNKYYADSVKGRFTISRDNSKNTLYLQMNSLRAEDTAIYYCARTGWLGPFDYWGQGTLVTVSS
VL: not shown
B2: pembrolizumab (Selleck Biotech Co., Ltd., Cat. No. A2005) (antibody, V domains shown)
VH: QVQLVQSGVEVKKPGASVKVSCKASGYTFTNYYMYWVRQAPGQGLEWMGGINPSNGGTNFNEKFKNRVTLTTDSSTTTAYMELKSLQFDDTAVYYCARRDYRFDMGFDYWGQGTTVTVSS
VL: EIVLTQSPATLSLSPGERATLSCRASKGVSTSGYSYLHWYQQKPGQAPRLLIYLASYLESGVPARFSGSGSGTDFTLTISSLEPEDFAVYYCQHSRDLPLTFGGGTKVEIKR
B3: nivolumab (Selleckchem, Cat. No. A2002) (antibody, V domains shown)
VH: QVQLVESGGGVVQPGRSLRLDCKASGITFSNSGMHWVRQAPGKGLEWVAVIWYDGSKRYYADSVKGRFTISRDNSKNTLFLQMNSLRAEDTAVYYCATNDDYWGQGTLVTVSS
VL: EIVLTQSPATLSLSPGERATLSCRASQSVSSYLAWYQQKPGQAPRLLIYDASNRATGIPARFSGSGSGTDFTLTISSLEPEDFAVYYCQQSSNWPRTFGQGTKVEIK

What follows are binders tested against T1, recombinant hTfR described in Example 2 of WO2018/124121, random biotinylated (human, UniProt P02786 89-760, randomly biotinylated with NHS-PEG4-Biotin) (assay: ELISA, target on streptavidin plate, sample at 100 nM, anti-human IgG-HRP).
T1 construct: held on a streptavidin plate for ELISA; also called human TfR
T1 sequence (P02786 89-760 limits assumed): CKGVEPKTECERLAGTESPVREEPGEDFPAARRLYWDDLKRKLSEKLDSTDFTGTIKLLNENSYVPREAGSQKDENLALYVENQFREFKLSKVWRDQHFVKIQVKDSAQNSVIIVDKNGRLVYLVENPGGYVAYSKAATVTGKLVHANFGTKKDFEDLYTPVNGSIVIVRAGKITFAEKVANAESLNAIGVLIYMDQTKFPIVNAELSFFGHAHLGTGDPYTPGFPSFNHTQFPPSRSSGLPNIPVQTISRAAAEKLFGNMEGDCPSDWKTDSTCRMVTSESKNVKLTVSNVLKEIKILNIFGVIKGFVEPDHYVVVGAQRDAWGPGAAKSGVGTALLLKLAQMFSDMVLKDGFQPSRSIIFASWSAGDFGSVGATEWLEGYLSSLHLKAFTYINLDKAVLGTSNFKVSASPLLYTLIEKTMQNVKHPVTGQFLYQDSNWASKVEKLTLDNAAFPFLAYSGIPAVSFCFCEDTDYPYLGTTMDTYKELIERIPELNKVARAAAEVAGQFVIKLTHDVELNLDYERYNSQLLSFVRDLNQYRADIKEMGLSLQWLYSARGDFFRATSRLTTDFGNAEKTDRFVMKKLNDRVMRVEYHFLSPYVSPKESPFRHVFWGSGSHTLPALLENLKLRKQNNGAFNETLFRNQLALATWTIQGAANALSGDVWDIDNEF
For B1, the “Abs450 nm at 100 nM” value was 0.0435 Abs450 nm. For B2, the “Abs450 nm at 100 nM” value was 0.041 Abs450 nm. For B3, the “Abs450 nm at 100 nM” value was 0.049 Abs450 nm.
